Measured values reported in patent US20090325869A1 (CHILDREN S HOSPITAL AND RESEARCH CENTER OAKLAND, published 2009).

Biological target: T1, Ferritin H (frog), wild type, protein nanocage (frog, UniProt P07229 2-176)
T1 sequence (looked up): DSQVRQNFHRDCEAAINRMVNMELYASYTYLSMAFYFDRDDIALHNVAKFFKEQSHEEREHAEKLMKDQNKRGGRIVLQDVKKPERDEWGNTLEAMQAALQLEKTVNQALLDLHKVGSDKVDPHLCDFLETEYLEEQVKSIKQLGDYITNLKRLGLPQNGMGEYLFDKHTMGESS
Assay: cell-based or functional assay

HSNTYYFPKGG [Peptide 1, synthetic undecapeptide HSNTYYFPKGG]
rate of ferritin demineralization, fold against wild type ferritin H without peptide: 3.3 fold
